Experimental data taken from patent US20050032146A1 (published 2005).

T1: tsks fused to the GAL 4 activation domain (AD)
T1 chain: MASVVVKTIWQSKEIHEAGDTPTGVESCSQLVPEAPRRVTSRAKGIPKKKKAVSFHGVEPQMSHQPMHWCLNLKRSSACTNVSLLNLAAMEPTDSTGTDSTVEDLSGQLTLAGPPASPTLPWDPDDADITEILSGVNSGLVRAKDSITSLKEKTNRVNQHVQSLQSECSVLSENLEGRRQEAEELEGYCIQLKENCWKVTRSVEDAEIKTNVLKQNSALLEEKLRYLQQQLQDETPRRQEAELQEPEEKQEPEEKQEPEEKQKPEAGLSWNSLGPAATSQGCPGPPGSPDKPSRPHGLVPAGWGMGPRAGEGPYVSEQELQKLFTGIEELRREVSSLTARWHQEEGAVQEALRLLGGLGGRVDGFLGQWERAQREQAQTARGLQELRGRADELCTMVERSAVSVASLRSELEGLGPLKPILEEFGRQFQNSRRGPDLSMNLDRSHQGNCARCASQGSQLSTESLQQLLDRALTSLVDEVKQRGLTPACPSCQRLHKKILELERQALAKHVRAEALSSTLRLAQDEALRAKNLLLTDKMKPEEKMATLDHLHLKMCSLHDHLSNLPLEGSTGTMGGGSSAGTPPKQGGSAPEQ

B1: tssk 2 fused to the GAL4 DNA binding domain (DNA-BD) (protein)
chain: MKLLSSIEQACDICRLKKLKCSKEKPKCAKCLKNNWECRYSPKTKRSPLTRAHLTEVESRLERLEQLFLLIFPREDLDMILKMDSLQDIKALLTGLFVQDNVNKDAVTDRLASVETDMPLTLRQHRISATSSSEESSNKGQRQLTVSMDDATVLRKKGYIVGINLGKGSYAKVKSAYSERLKFNVAVKIIDRKKTPTDFVERFLPREMDILATVNHGSIIKTYEIFETSDGRIYIIMELGVQGDLLEFIKCQGALHEDVARKMFRQLSSAVKYCHDLDIVHRDLKCENLLLDKDFNIKLSDFGFSKRCLRDSNGRIILSKTFCGSAAYAAPEVLQSIPYQPKVYDIWSLGVILYIMVCGSMPYDDSDIRKMLRIQKEHRVDFPRSKNLTCECKDLIYRMLQPDVSQRLHIDEILSHSWLQPPKPKATSSASFKREGEGKYRAECKLDTKTGLRPDHRPDHKLGAKTQHRLLVVPENENRMEDRLAETSRAKDHHISGAEVGKAST
B2: GAL 4 activation domain alone (GAL-AD plasmid) (other, UniProt P04386 768-881, looked up)
chain: ANFNQSGNIADSSLSFTFTNSSNGPNLITTQTNSQALSQPIASSNVHDNFMNNEITASKIDDGNNSKPLSPGWTDQTAYNAFGITTGMFNTTTMDDVYNYLFDDEDTPPNPKKE
notes: Negative-control prey without an insert; also called GAL-AD alone

How the values were obtained:
[1] = target: T1, tsks fused to the GAL 4 activation …
[2] = target: T2, tssk 2 fused to the GAL4 DNA binding domain (DNA-BD) (human, UniProt P04386 1-147 (Saccharomyces cerevisiae entry), limits assumed); assay: yeast two-hybrid, growth in His-free medium (AH109)
T2 construct: Yeast two-hybrid bait expressed in the AH109 reporter strain; also called bait gene (tssk 2); fusion protein of tssk 2 with the DNA-BD
Protocol: In this experiment, a bait gene (tssk 2) was first transformed into the reporter strain as a fusion to the GAL4 DNA binding domain (DNA-BD). A second plasmid that expressed tsks as fusion to the GAL 4 activation domain (AD) was also introduced into the AH109 reporter strain. Western blots were performed to confirm expression of fusion proteins in yeast. […] This interaction was used as a positive control. […] Neither GAL-AD alone nor the fusion proteins between GAL-AD and TSKS or GAL-AD and SV40 Large T antigen had the ability to activate transcription of the His gene.

| Binder | transcription of the Histidine (HIS) gene; growth of yeast in His-free medium [1] | binding result [2] |
| --- | --- | --- |
| B1 | promote transcription of the Histidine (HIS) gene and allow for the growth of yeast in His-free medium | – |
| B2 | – | no binding |
